Measurements: patent US20130052176, “APTAMER FOR NGF AND USE THEREOF” (SHIONOGI & CO., LTD, published 2013)

Legend:
[1] = target: T1, NT-4/5 (human, UniProt P34130 P34130:81-210); experiment: cell_activity; TF-1 TrkB proliferation; SPR showed very fast dissociation; conditions: tags: R&D Systems; chain copies: 2
T1 sequence: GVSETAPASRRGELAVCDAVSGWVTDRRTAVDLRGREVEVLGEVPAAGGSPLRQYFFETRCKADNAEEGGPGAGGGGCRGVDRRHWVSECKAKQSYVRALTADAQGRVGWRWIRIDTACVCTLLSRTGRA
Description: (§1) The physiological inhibitory activity of the aptamers represented by aptamer IDs: 26(2), 52, 63-65 against BDNF, NT-3, NT-4/5 was evaluated by a growth inhibition assay using TF-1 cells.
(§2) Human receptor genes (TrkB, TrkC, p75) for respective neurotrophic factors were introduced into TF-1 cells (ATCC Number:CRL-2003), which is a human erythroleukemic cell line, by using a retrovirus vector to give cells that highly express these receptors stably. TF-1 cells introduced with TrkB and p75 were used for the evaluation of inhibitory activity against BDNF, TF-1 cells introduced with TrkC and p75 were used for the evaluation against NT-3, and TF-1 cells introduced with TrkB alone were used for the evaluation against NT-4/5. These cells were suspended in an RPMI-1640 medium containing 20% fetal bovine serum, and seeded in a white 96 well flat-bottom plate at 1000 cells (50 μL) per well. […] With the amount of luminescence per well obtained by the addition of BDNF or NT-3 or NT-4/5 alone and culture of the cells for 3 days as inhibitory activity 0%, and that of the cell obtained by culture for 3 days without addition of BDNF or NT3 or NT-4/5 as inhibitory activity 100%, the inhibitory activity of the aptamer was calculated from the amount of luminescence per well obtained by culturing with the addition of BDNF or NT3 or NT-4/5 and the aptamer in mixture. […]

[2] = target: T2, BDNF (human, UniProt P23560 P23560:129-247); experiment: cell_activity; TF-1 TrkB/p75 proliferation; SPR showed very fast dissociation; conditions: tags: R&D Systems; chain copies: 2
T2 sequence: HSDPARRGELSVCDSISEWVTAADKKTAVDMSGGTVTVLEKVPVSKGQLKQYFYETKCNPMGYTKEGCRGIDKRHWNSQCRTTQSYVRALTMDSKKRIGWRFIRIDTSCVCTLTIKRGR
Description: as §1, §2

[3] = target: T3, NGF (nerve growth factor) (human, UniProt P01138 P01138:122-241); experiment: cell_activity; neurite outgrowth, NGF 0.38 nM; TF-1 IC50 0.203 nM; conditions: tags: human NGF; chain copies: 2
T3 sequence (P01138 122-241, one chain of several): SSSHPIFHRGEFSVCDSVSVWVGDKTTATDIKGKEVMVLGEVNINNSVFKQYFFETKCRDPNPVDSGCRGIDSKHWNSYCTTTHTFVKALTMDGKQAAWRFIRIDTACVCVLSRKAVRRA
Description: (§3) The neurite outgrowth inhibitory activity of the aptamer obtained in Example 1 was evaluated by using Neuroscreen-1 cell, which is a subclone of PC-12 cells.
(§4) The cells (2500 cells per well) were cultured for one day in an RPMI-1640 medium containing 2.5% horse serum and 1.25% fetal bovine serum in a 96 well flat-bottom plate coated with collagen type IV. […] Two days later, the cytoplasm and nuclei were stained using Cellomics Neurite Outgrowth Kit (manufactured by Thermo Scientific), and neurite length per cell was measured by Cellomics ArrayScan VTI (manufactured by Thermo Scientific). With the neurite length per cell obtained by the addition of NGF alone as inhibitory activity 0%, and that of the cell obtained by NGF free culture for 2 days as inhibitory activity 100%, the inhibitory activity of the aptamer was calculated from the neurite length per cell obtained by culturing with the addition of NGF and the aptamer in mixture. When the inhibitory activity was 0% or below, ‘0%’ is indicated.

[4] = target: T3, NGF (nerve growth factor); experiment: cell_activity; neurite outgrowth, NGF 0.38 nM; TF-1 IC50 0.158 nM; conditions: tags: human NGF; chain copies: 2
Description: as §3, §4

[5] = target: T3, NGF (nerve growth factor); experiment: cell_activity; neurite outgrowth, NGF 0.38 nM; TF-1 IC50 0.184 nM; conditions: tags: human NGF; chain copies: 2
Description: as §3, §4

[6] = target: T3, NGF (nerve growth factor); experiment: cell_activity; neurite outgrowth, NGF 0.38 nM; TF-1 IC50 0.177 nM; conditions: tags: human NGF; chain copies: 2
Description: as §3, §4

[7] = target: T3, NGF (nerve growth factor); experiment: cell_activity; neurite outgrowth, NGF 0.38 nM; TF-1 IC50 0.131 nM; conditions: tags: human NGF; chain copies: 2
Description: as §3, §4

B1: aptamer ID 26(2) (ssRNA)
RNA: GGGAGACUCGCCAGAGUUGAAAGAAACCCAAAUAAGUGUGCGCAC
modifications: 5' and 3' idT; 2'-F all pyrimidines; 2'-OMe purines except ribo g3,g5,g19,a20,a21,a22,a24,a26
[1]
  IC50: > 300 nM
[2]
  IC50: > 1000 nM

B2: aptamer ID 26(25) (mixed)
RNA: GGGAGACUCGCCAGAGUUGAAAGAAACCCAAAUAAGUGUGCGCAC
modifications: as 26(19) (5' and 3' idT; 2'-F pyrimidines; 2'-OMe purines except ribo g3,g19,a20,a26) but c12 is dC
[3]
  IC50: 0.29 nM

B3: aptamer ID 26(27) (mixed)
RNA: GGGAGACUCGCCAGAGUUGAAAGAAACCCAAAUAAGUGUGCGCAC
modifications: as 26(19) (5' and 3' idT; 2'-F pyrimidines; 2'-OMe purines except ribo g3,g19,a20,a26) but c29 is dC
[4]
  IC50: 0.15 nM

B4: aptamer ID 26(28) (mixed)
RNA: GGGAGACUCGCCAGAGUUGAAAGAAACCCAAAUAAGUGUGCGCAC
modifications: as 26(19) (5' and 3' idT; 2'-F pyrimidines; 2'-OMe purines except ribo g3,g19,a20,a26) but u33 is dT
[5]
  IC50: 0.2 nM

B5: aptamer ID 26(26) (mixed)
RNA: GGGAGACUCGCCAGAGUUGAAAGAAACCCAAAUAAGUGUGCGCAC
modifications: as 26(19) (5' and 3' idT; 2'-F pyrimidines; 2'-OMe purines except ribo g3,g19,a20,a26) but u17 is dT
[6]
  IC50: 0.285 nM

B6: aptamer ID 26(29) (mixed)
RNA: GGGAGACUCGCCAGAGUUGAAAGAAACCCAAAUAAGUGUGCGCAC
modifications: as 26(19) (5' and 3' idT; 2'-F pyrimidines; 2'-OMe purines except ribo g3,g19,a20,a26) but u37 is dT
[7]
  IC50: 0.138 nM
